In the supplement of paper PMC10567573:
± gives the standard deviation.

Assay: protein stability index of a GFP-peptide fusion (GPS, HEK-293T) (PSI 1-6); higher = more stable
Details: c terminus: a fixed tail appended
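Further: 24-mer peptide tiles fused after GFP, lentivirally expressed, FACS-sorted into six equal bins by GFP/DsRed ratio, decoded by Illumina sequencing, PSI is the read-weighted mean bin number.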

Sequence	protein stability index (treatment: DMSO)	protein stability index (treatment: MLN4924 1 uM, 8 h)
DDLRINLWHLAITDRSFNIVDIKP [PPP2R2C]	2.19 ± 0.2	2.17 ± 0.19
DDPSLRKTHSSPALSQGHVTGSKT [PSD2]	5.5 ± 0.32	5.5 ± 0.33
DEHEHPLTSELDPEKEQEIETIKI [MIA2]	5.33 ± 0.42	5.36 ± 0.42
DENLDRMVPISKQPKEKIQAIIES [NOL4L]	4.88 ± 0.38	4.83 ± 0.21
DETGITVASLERFSTYTSDKDENK [ZC3H15]	5.14 ± 0.3	5.29 ± 0.087
DFTTAAEDQPINLCDKLPPATALG [NOL4L]	4.83 ± 0.18	4.78 ± 0.1
DGHIDINEFLEAFRLVEKSCPEGD [PPEF2]	4.67 ± 0.37	4.71 ± 0.17
DGKLLWEQELYNNFVYNSPRGYFH [WASL]	2.07 ± 0.24	2.27 ± 0.41
DGTAENGIHPLSSSEVDELIHKAD [PALM]	5.38 ± 0.2	5.35 ± 0.42
DGVKESSESTNTTIEDEDTKVRKQ [CAMK2A]	5.65 ± 0.13	5.59 ± 0.29
DHLTTVLYLQLAICSSLQNLEKTI [C8orf76]	3.21 ± 0.57	3.41 ± 0.35
DHVDLSLSCTLVPRSGEQAEGSPG [CDKN1A]	4.91 ± 0.17	5.08 ± 0.23
DIELGCSTPLMEAAQEGHLELVKY [ANKRD17]	4.03 ± 0.29	4.18 ± 0.27
DITAYLFGFFFGRTPLIKLSPKKT [CDS1]	3.11 ± 0.64	2.73 ± 0.46
DKCMVCGGDGSGCSKQSGSFRKFR [ADAMTS4]	2.14 ± 0.11	3.25 ± 0.85
DKITGQSLGYGFVNYSDPNDADKA [ELAVL3]	4.81 ± 0.24	4.82 ± 0.15
DLDFKHHNYKEMRQLMKVVNEMCP [CPXM2]	2.93 ± 0.21	2.66 ± 0.31
DLEAVVPQNGSETGWARKGLGNTW [ATP23]	3.42 ± 0.2	3.38 ± 0.44

Sequence	protein stability index (treatment: DMSO)	protein stability index (treatment: MLN4924 1 uM, 8 h)
DLHFKMFDVGGQRSERKKWIHCFE [GNAI1]	1.73 ± 0.25	2.64 ± 0.35
DLLCKTSHLSDTGISALVEIPKNC [WDR41]	2.8 ± 0.23	2.78 ± 0.34
DLTSEDQIVLLKSSAIEVIMLRSN [VDR]	2.28 ± 0.21	2.05 ± 0.34
DMSWTCGNQDYKYRVSDVTKAGHS [VDR]	2.73 ± 0.15	2.74 ± 0.095
DNDPRDLIGDFSKGYLFHTVAGKH [CDC25A]	3.2 ± 0.13	3.41 ± 0.19
DPSVRLKIASLLGLLSKTAGFSPD [INTS4]	2.57 ± 0.46	2.38 ± 0.26
DQEHNVAALKQAIKDKEAPLHVAQ [TEKT4]	5.11 ± 0.19	5.18 ± 0.15
DQFDKDLPVYLKKDPAYFYGYVYF [DENND6A]	2.46 ± 0.71	2.19 ± 0.59
DQHRLYKQIKAGAYDFPSPEWDTV [CAMK2A]	3.29 ± 0.23	3.3 ± 0.24
DQLRSGSPPKSPRTTVHDKSAHQT [DNAJC4]	5.26 ± 0.25	5.4 ± 0.14
DQPVMAVKTGEDGSNLDDAKGLAE [FANCE]	5.44 ± 0.14	5.51 ± 0.26
DQTGSKSSNLLDLKNPFFRYTGTT [CARM1]	3.44 ± 0.18	3.28 ± 0.13
DQVMEFSWSALWNITDETPDNCEM [ZER1]	4.12 ± 0.27	4.04 ± 0.5
DREVAIYSKESIIFGASSVDFSLS [GNB5]	2.98 ± 0.17	3.2 ± 0.27
DSLKFAVLMWLLTYVGALFNGLTL [RTN1]	3.69 ± 1.4	3.378 ± 0.013
DSTMRILSNLVQHILKKYYGNGMR [RTP4]	2.45 ± 0.73	2.46 ± 0.41
DSYTATGYGRAPGGLSLHDYKLLK [JUNB]	3.36 ± 0.24	3.39 ± 0.21
DTCRTQLVWLVRELVKSGVLGADG [INTS3]	2.51 ± 0.54	2.37 ± 0.24
